According to the supplement of paper PMC5998384:

How the values were obtained:
HeLa Kyoto [1] = assay: solubility change mitosis vs G1/S (difference of NP-40 vs SDS log2 ratios) (log2 ratio difference); higher = more soluble in mitosis
HeLa Kyoto [2] = assay: solubility in G1/S (NP-40 vs SDS abundance) (log2 ratio); higher = more soluble; conditions: cell cycle stage: G1/S
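For solubility change mitosis vs G1/S (difference of NP-40 vs SDS log2 ratios) in this document: synchronized HeLa Kyoto cells (double thymidine block for G1/S, nocodazole release for mitosis), protein amounts in NP-40 versus SDS lysates quantified by mass spectrometry, three biological replicates.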
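For solubility in G1/S (NP-40 vs SDS abundance) in this document: HeLa Kyoto cells arrested at G1/S by double thymidine block, proteins quantified by TMT10plex mass spectrometry in mild NP-40 versus SDS extracts, three biological replicates.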

Sequence	solubility change mitosis (log2) (HeLa Kyoto [1])	solubility in G1/S (log2) (HeLa Kyoto [2])
MKLLRRAWRRRAALGLGTLALCGAALLYLARCAAEPGDPRAMSGRSPPPPAPARAAAFLAVLVASAPRAAERRSVIRSTWLARRGAPGDVWARFAVGTAGLGAEERRALEREQARHGDLLLLPALRDAYENLTAKVLAMLAWLDEHVAFEFVLKADDDSFARLDALLAELRAREPARRRRLYWGFFSGRGRVKPGGRWREAAWQLCDYYLPYALGGGYVLSADLVHYLRLSRDYLRAWHSEDVSLGAWLAPVDVQREHDPRFDTEYRSRGCSNQYLVTHKQSLEDMLEKHATLAREGRLCKREVQLRLSYVYDWSAPPSQCCQRREGIP [B3GALT6]	0.135	-0.748
MKMEEAVGKVEELIESEAPPKASEQETAKEEDGSVELESQVQKDGVADSTVISSMPCLLMELRRDSSESQLASTESDKPTTGRVYESDSSNHCMLSPSSSGHLADSDTLSSAEENEPSQAETAVEGDPSGVSGATVGRKSRRSRSESETSTMAAKKNRQSSDKQNGRVAKVKGHRSQKHKERIRLLRQKREAAARKKYNLLQDSSTSDSDLTCDSSTSSSDDDEEVSGSSKTITAEIPDGPPVVAHYDMSDTNSDPEVVNVDNLLAAAVVQEHSNSVGGQDTGATWRTSGLLEELNAEAGHLDPGFLASDKTSAGNAPLNEEINIASSDSEVEIVGVQEHARCVHPRGGVIQSVSSWKHGSGTQYVSTRQTQSWTAVTPQQTWASPAEVVDLTLDEDSRRKYLL [C18ORF25]	-0.243	-0.0209
MKRQSERDSSPSGRGSSSSAKRPREREREAEAGGRRAAHKASGGAKHPVPARARDKPRGSGSGGGGHRDGRGTGDANHRASSGRSSGSGAGGGGRGGKASGDPGASGMSPRASPLPPPPPPPGAEPACPGSSAAAPEYKTLLISSLSPALPAEHLEDRLFHQFKRFGEISLRLSHTPELGRVAYVNFRHPQDAREARQHALARQLLLYDRPLKVEPVYLRGGGGSSRRSSSSSAAASTPPPGPPAPADPLGYLPLHGGYQYKQRSLSPVAAPPLREPRARHAAAAFALDAAAAAAVGLSRERALDYYGLYDDRGRPYGYPAVCEEDLMPEDDQRATRNLFIGNLDHSVSEVELRRAFEKYGIIEEVVIKRPARGQGGAYAFLKFQNLDMAHRAKVAMSGRVIGRNPIKIGYGKANPTTRLWVGGLGPNTSLAALAREFDRFGSIRTIDHVKGDSFAYIQYESLDAAQAACAKMRGFPLGGPDRRLRVDFAKAEETRYPQQYQPSPLPVHYELLTDGYTRHRNLDADLVRDRTPPHLLYSDRDRTFLEGDWTSPSKSSDRRNSLEGYSRSVRSRSGERWGADGDRGLPKPWEERRKRRSLSSDRGRTTHSPYEERSRTKGSGQQSERGSDRTPERSRKENHSSEGTKESSSNSLSNSRHGAEERGHHHHHHEAADSSHGKKARDSERNHRTTEAEPKPLEEPKHETKKLKNLSEYAQTLQLGWNGLLVLKNSCFPTSMHILEGDQGVISSLLKDHTSGSKLTQLKIAQRLRLDQPKLDEVTRRIKQGSPNGYAVLLATQATPSGLGTEGMPTVEPGLQRRLLRNLVSYLKQKQAAGVISLPVGGSKGRDGTGMLYAFPPCDFSQQYLQSALRTLGKLEEEHMVIVIVRDTA [RBM15B]	0.504	-0.311
MLGTVKMEGHETSDWNSYYADTQEAYSSVPVSNMNSGLGSMNSMNTYMTMNTMTTSGNMTPASFNMSYANPGLGAGLSPGAVAGMPGGSAGAMNSMTAAGVTAMGTALSPSGMGAMGAQQAASMNGLGPYAAAMNPCMSPMAYAPSNLGRSRAGGGGDAKTFKRSYPHAKPPYSYISLITMAIQQAPSKMLTLSEIYQWIMDLFPYYRQNQQRWQNSIRHSLSFNDCFVKVARSPDKPGKGSYWTLHPDSGNMFENGCYLRRQKRFKCEKQPGAGGGGGSGSGGSGAKGGPESRKDPSGASNPSADSPLHRGVHGKTGQLEGAPAPGPAASPQTLDHSGATATGGASELKTPASSTAPPISSGPGALASVPASHPAHGLAPHESQLHLKGDPHYSFNHPFSINNLMSSSEQQHKLDFKAYEQALQYSPYGSTLPASLPLGSASVTTRSPIEPSALEPAYYQGVYSRPVLNTS [FOXA1]	0.0934	0.392
MLPGVGVFGTSLTARVIIPLLKDEGFAVKALWGRTQEEAEELAKEMSVPFYTSRIDEVLLHQDVDLVCINLPPPLTRQIAVKTLGIGKNVICDRTATPLDAFRMTSAAHYYPKLMSIMGNVLRFLPAFVRMKQLIEEGYVGEPLVCEVQVHGGSLLGKKYNWSCDDLMGGGGLHSVGTYIIDLLTFLTGQKAVKVHGLLKTFVKQTDHIKGIRQITSDDFCTFQMVLEGGVCCTVTLNFNVPGEFKQDVTVVGSAGRLLAVGTDLYGQRNSAPEQELLVQDATPVSNSLLPEKAFSDIPSPYLRGTIKMMQAVRQAFQDQDDRRTWDGRPLTMAATFDDCLYALCVVDTIKRSSQTGEWQNIAIMTEEPELSPAYLISEAMRRSRMSLYC [GFOD1]	-0.244	-0.0575
MLPPMALPSVSWMLLSCLMLLSQVQGEEPQRELPSARIRCPKGSKAYGSHCYALFLSPKSWTDADLACQKRPSGNLVSVLSGAEGSFVSSLVKSIGNSYSYVWIGLHDPTQGTEPNGEGWEWSSSDVMNYFAWERNPSTISSPGHCASLSRSTAFLRWKDYNCNVRLPYVCKFTD [PAP1]	-0.21	0.102
MLRSTGFFRAIDCPYWSGAPGGPCRRPYCHFRHRGARGSGAPGDGGEAPPAAGLGYDPYNPELPKPPAQRENGTLGLGEEPRPDVLELELVNQAIEAVRSEVELEQRRYRELLETTREHRSAEAPALAPRGPNASPTVGPDEDAFPLAFDYSPGSHGLLSPDAGYQPTPLAAPAEPGSKYSLASLDRGQGRGGGGGGALEYVPKAVSQPRRHSRPVPSGKYVVDNSRPPTDLEYDPLSNYSARHLSRASSRDERAAKRPRGSRGSEPYTPAPKKLCDPFGSCDARFSDSEDEAATVPGNEPTTASTPKARADPEIKATGQPPSKEGLEAEGGGLRETKETAVQCDVGDLQPPPAKPASPAQVQSSQDGGCPKEGKPKKKKTGAPPAPSCKDGAQGKDKTKDKGRGRPVEKPRADKKGPQASSPRRKAERPEGTKKKPSSATPVATSGKGRPDRPARRPSPTSGDSRPAAGRGPPRPLQLPDRKSTKAPSGKLVERKARSLDEGASQDAPKLKKRALSHADLFGDESEDEAAGPGVPSVWPSALPSLSSDSDSDSDSSLGFPEAQGPPKRLKASPPPSPAPSSSSSSSSSTSSAGADVDYSALEKEVDFDSDPMEECLRIFNESTSVKTEDRGRLARQPPKEEKSEEKGLSGLTTLFPGQKRRISHLSKQGQEVEPPRRGPAVPPARPPTAQEVCYLRAQQAQRASASLLQAPARLAEKSPSVHISAPGEKRRIAHIPNPRLAAAPTGAKRTLAASGSQSSNGPEPGGQQLKTRTLSGMASKTTTTIIPKRIAHSPSLQSLKKPIIPKEFGGKVPTVIRQRYLNLFIEECLKFCTSNQEAIEKALNEEKVAYDRSPSKNIYLNVAVNTLKKLRGLAPSAVPGLSKTSGRRVVSHEVVLGGRLAAKTSFSLSRPSSPRVEDLKGAALYSRLREYLLTQDQLKENGYPFPHPERPGGAIIFTAEEKRPKDSSCRTCCRCGTEYLVSSSGRCIRDEECYYHWGRLRRNRVAGGWETQYMCCSAAAGSVGCQVAKQHVQDGRKERLEGFVKTFEKELSGDTHPGIYALDCEMSYTTYGLELTRVTVVDTDVHVVYDTFVKPDNEIVDYNTRFSGVTEADLADTSVTLRDVQAVLLSMFSADTILIGHSLESDLLALKVIHSTVVDTSVLFPHRLGLPYKRSLRNLMADYLRQIIQDNVDGHSSSEDAGACMHLVIWKVREDAKTKR [REXO1]	-0.0256	-0.201
MLRVVSWNINGIRRPLQGVANQEPSNCAAVAVGRILDELDADIVCLQETKVTRDALTEPLAIVEGYNSYFSFSRNRSGYSGVATFCKDNATPVAAEEGLSGLFATQNGDVGCYGNMDEFTQEELRALDSEGRALLTQHKIRTWEGKEKTLTLINVYCPHADPGRPERLVFKMRFYRLLQIRAEALLAAGSHVIILGDLNTAHRPIDHWDAVNLECFEEDPGRKWMDSLLSNLGCQSASHVGPFIDSYRCFQPKQEGAFTCWSAVTGARHLNYGSRLDYVLGDRTLVIDTFQASFLLPEVMGSDHCPVGAVLSVSSVPAKQCPPLCTRFLPEFAGTQLKILRFLVPLEQSPVLEQSTLQHNNQTRVQTCQNKAQVRSTRPQPSQVGSSRGQKNLKSYFQPSPSCPQASPDIELPSLPLMSALMTPKTPEEKAVAKVVKGQAKTSEAKDEKELRTSFWKSVLAGPLRTPLCGGHREPCVMRTVKKPGPNLGRRFYMCARPRGPPTDPSSRCNFFLWSRPS [APEX2]	-0.0093	0.0896
